The target in the test is mouse TIGIT-His (SEQ ID NO: 3) (mouse) (UniProt P86176). The test can be described thus: BLI (Octet QKe), SEC1 on AMC sensor, mouse TIGIT-His 33 to 1.22 nM, 1:1 global fit. For orientation: BLI is a label-free optical method that tracks binding on a fibre tip over time.

This is an account of results in patent US20170165366A1.

The Kd is a measure of binding affinity in units of concentration. A word on the koff: it is a measure of how fast the partners let go of each other. As a reminder, the kon is the second-order rate constant of association. Read a high kon as faster complex formation.

Chain of mouse TIGIT-His (SEQ ID NO: 3) (mouse) (P86176 other isoform, or with tags, fused parts or gaps limits assumed, form in doubt): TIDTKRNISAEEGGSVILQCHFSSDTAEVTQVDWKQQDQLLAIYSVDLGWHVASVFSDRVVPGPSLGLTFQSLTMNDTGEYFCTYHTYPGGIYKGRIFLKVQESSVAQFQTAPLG

B1: SEC1 mouse IgG2a N297A (antibody, V domains shown)
VH: EVQLVESGGGLTQPGKSLKLSCEASGFTFSSFTMHWVRQSPGKGLEWVAFIRSGSGIVFYADAVRGRFTISRDNAKNLLFLQMNDLKSEDTAMYYCARRPLGHNTFDSWGQGTLVTVSS
VL: DIVMTQSPSSLAVSPGEKVTMTCKSSQSLYYSGVKENLLAWYQQKPGQSPKLLIYYASIRFTGVPDRFTGSGSGTDYTLTITSVQAEDMGQYFCQQGINNPLTFGDGTKLEIKR
B1 returned a Kd of 0.32 nM, a koff of 0.0006 s⁻¹ and a kon of 1.9e+06 M⁻¹ s⁻¹.
